Data: patent US20260226168A1

These binders were tested against human GPRC5D protein (human) (UniProt Q9NZD1) (assay: FACS, subclone culture supernatant on NCI-H929 cells (medium alone: MFI 8242)).
human GPRC5D protein (human), sequence (Q9NZD1 whole entry): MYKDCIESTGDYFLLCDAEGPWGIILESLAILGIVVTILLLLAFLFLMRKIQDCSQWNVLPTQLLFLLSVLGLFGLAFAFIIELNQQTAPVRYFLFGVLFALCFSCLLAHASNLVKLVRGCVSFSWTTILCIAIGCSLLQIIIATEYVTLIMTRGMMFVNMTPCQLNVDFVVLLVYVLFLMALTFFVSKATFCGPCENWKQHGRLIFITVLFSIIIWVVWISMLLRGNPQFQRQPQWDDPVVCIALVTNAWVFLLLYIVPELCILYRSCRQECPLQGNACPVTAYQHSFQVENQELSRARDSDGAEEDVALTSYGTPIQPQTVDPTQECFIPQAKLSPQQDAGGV

MFI | Binder
12800 | mu-131 (antibody, V domains shown) VH: EVQLQQSGPELVKPGASVKMSCKASGYTFTNYVMHWVKQKPGQGLEWIGYFNPYNDGTNYNEKFKGKATLTSDKSSNTAYMELSSLTSEDSAVYYCARGGVRRYFDVWGAGTTVTVSS VL: DIQMTQSPSSLSASLGERVSLTCRASQDIGSNLNWLQLGPDGTIKRLIYATFSLDSGVPKRFSGSRSGSDYSLTISSLESEDFVDYYCQQYANFPPTFGGGTKLEIK
13200 | mu-105 (antibody, V domains shown) VH: EVQLQQSGPELVKPGASVKMSCKASGYTFTDYYMNWVKQSHGKSLEWIGYIYPNNGGTGYNQRFKGKATLTADKSSSTAYMELRSLTSEDSAVYYCARWGGTRLGYYAMDYWGQGTSVTVSS VL: DIVMTQSQKFMSTSVGDRVSVTCKASQNVGTNVVWYQQKPGQSPKLLIYWASTRHTGVPDRFTGSGSGTDFTLTISNVQSEDLADYFCQQYSRYPYTFGGGTKLEIK
11900 | mu-89 (antibody, V domains shown) VH: EVQLVESGGDLVKPGGSLKLSCAASGFTFSSYGMSWVRQTPDKRLEWVATISSGGSYTYYPDSVKGRFTFSRDNAKNTLYLQMSSLKSEDTAMYYCVRQALRYHMDSWGQGTSVTVSS VL: DIVMTQSQKFMSTSVGDRVSVTCKASQNVGTNVAWYQQKPGQSPKALIYSASYRYSGVPDRFTGSGSGTDFTLTISNVQSEDLADFFCQQYYSYPWTFGGGTKLEIK
15700 | mu-128 (antibody, V domains shown) VH: DVQLVESGGGLVQPGGSRKVSCAASGFTFSSFGMHWVRQAPEKGLEWVAYISRGSSTIYYADTVKGRFTISRDNPKNTLFLQMTSLRSEDTAMYYCARSGYGSSSYYFDYWGQGTTLTVSS VL: ENVLTQSPAIMSASPREKVTMTCRASSSIRSSYLHWYQQKSGASPKLWIYSTSNLASGVPARFSGSGSGTSYSLTISSVEAEDAATYYCQQFSGYPLTFGGGTKLEIK
